Measurements published in patent US11834472B2, “Anti-IL-22 antibodies, antibody fragments, their immunoconjugates and uses thereof” (BioAtla, Inc., priority 2018, dated 2023).

Tests used:
[1] = target: T1, mIL22 (Mus musculus, UniProt Q9JJY9); experiment: Inhibition of mIL-22 induced acute phase response (SAA) in mice; type: in vivo; details: 5 μg mIL22 and 50 μg mAb; molar ratio of mIL 22:mAb = 1:2.2; SAA in mice at 24 hours
T1 sequence (Q9JJY9 34-179): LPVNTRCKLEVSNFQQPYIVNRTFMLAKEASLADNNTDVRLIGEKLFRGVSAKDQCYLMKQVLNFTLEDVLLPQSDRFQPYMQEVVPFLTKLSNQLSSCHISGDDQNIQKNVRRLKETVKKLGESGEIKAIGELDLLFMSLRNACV
Procedure: IL-22 induces acute phase responses in animals such as mice and humans. The mutant antibodies of the present invention can inhibit the acute phase response induced by IL-22. This acute phase response is indicated by the concentration of serum amyloid (SAA) in the blood of the animal as shown in FIG. 11. The SAA concentrations in the blood of mice were measured 24 hours after treatment of the mice by IL-22 and/or the mutant antibodies. When only IL-22 is used, the SAA concentration was high.
5 μg mIL-22 was used to stimulate an acute phase response in mice. The acute phase response was measured by the concentration of serum amyloid (SAA) in the blood of the mice. The anti-IL-22 antibodies were administered at two different dosage levels to inhibit the IL-22 induced acute phase response: 5 μg and 50 μg. Five mice were used for each dose group. The SAA concentrations were measured at 24 hours after injection of IL-22 and/or antibodies and the results are shown in FIG. 11.

[2] = Thermostability; type: physicochemical
[3] = Pharmacokinetics in NOD SCID mice, plasma concentration by solid phase ELISA; type: in vivo, mouse; details: after a 10 mg/kg IV injection
Procedure: The pharmacokinetics of the mutant antibodies of Table 1 were analyzed in mice. The antibodies were injected into mice by IV injection at two doses 0.3 mg/kg and 10 mg/kg. The concentrations of the injected antibodies in the blood plasma were measured by solid phase ELISA.
Two anti-IL-22 antibodies CPS02 and CPS09 were tested in NOD SCID mice. The antibodies were injected via IV at two dosages: 0.3 mg/kg and 10 mg/kg. Three mice were used for each dose group. Blood samples were retrieved from the mice at 10 min, 1 h, 3 h 7 h, 24 h, 48 h, 96 h, 168 h, 240 h and 336 h after the IV injection. The concentrations of the injected antibodies in the blood samples were measured by solid phase ELISA.

[4] = target: T2, mouse IL-22 (Mus musculus, UniProt Q9JJY9); experiment: SPR capture assay, affinity to mouse IL-22; type: binding; details: mouse IL-22, SPR
T2 sequence (Q9JJY9 34-179): T1 sequence (Q9JJY9 34-179)
Procedure: The affinity of the 10 antibodies of Table 1 was measured by Surface Plasma Resonance (SPR) using a capture assay in PBS buffer to generate binding curves at four different concentrations of each antibody (0.05, 0.1, 0.5, and 1.0 μg/ml). The Ka, Kd and KD values for the mutant antibodies were calculated from the curves for each of the antibodies.
The affinity of the 10 antibodies of Table 1 was measured by Surface Plasma Resonance (SPR) using a capture assay on a SPR-2 instrument (SierraSensiors, Hamburg, Germany). The antigens hIL-22 and mIL-22 were immobilized on chips. The running buffer for the assay contained 10 mM HEPES with a pH of 7.4, 500 mM NaCl, and 0.05% TWEEN® 20. […] The off-rate was measured for 6 minutes. Binding constants were calculated using the curve fitting software Analyzer2 (Sierra Sensors). Sensorgrams were analyzed with the instrument specific software and with BIAevaluation 4.1 software. The binding data were analyzed using the Langmuir 1:1 model (human IL-22) or a model for a heterogeneous ligand ([…]).
The antibodies were tested at four different concentrations of each antibody: 0.33 nM, 0.67 nM, 3.3 nM, 6.7 nM for hIL-22; 1, 2, […] for mIL-22. Antibody CPE-LC-E049K was used as a control.

B1: CPS02: mutant anti-IL-22 antibody binding human and mouse IL-22; light chain LC-06, heavy chain HC-08 (antibody, V domains shown)
VH: QVQLVQSGAEVKKPGASVKVSCKASGYIFRSYWIHWIRQPPGKGLEWIGRIYPGTGRTYYNEKFKGRVTISADKSISTAYLQWSSLKASDTAMYYCARSYDSSVAYWGQGTLVTVSS
VL: AIQLTQSPSSLSASVGDRVTITCSASSSVSYMHWYLQKPGQSPQLLIYKTRKLASGVPSRFSGSGSGTDFTFTISSLEAEDAATYYCQQWSSNPYITFGQGTKVEIKR
Acute Phase response (% signal reduction) [1]: signal increase | Thermostability (% remaining activity 60 min); of duplicate samples [2]: 104% | half-life in mice [3]: about 18 hours | ka [4]: 166000 M·s | kd [4]: 0.000545 s⁻¹
